Consider three molecules from PMC5085138, “Novel CD7-specific nanobody-based immunotoxins potently enhanced apoptosis of CD7-positive malignant cells” (Oncotarget, 2016).

B1: CD7 on CD7-positive T-cell lines Jurkat and CEM (receptor)
chain: AQEVQQSPHCTTVPVGASVNITCSTSGGLRGIYLRQLGPQPQDIIYYEDGVVPTTDRRFRGRIDFSGSQDNLTITMHRLQLSDTGTYTCQAITEVNVYGSGTLVLVTEEQSQGWHRCSDAPPRASALPAPPTGSALPDPQTASALPDPPAASALPAALAVISFLLGLGLGVACVLARTQIKKLCSWRDKNSAACVVYEDMSHSRCNTLSSPNQYQ
notes: CD7, cell surface glycoprotein of the immunoglobulin superfamily, endogenous on the human T-ALL cell lines Jurkat and CEM; Also used as the target in the functional rows on patient-derived primary AML and T-ALL cells; source: endogenous, on Jurkat and CEM cells
B2: VHH10, CD7-specific nanobody (VHH)
VHH: DVQLQESGGGSVQAGGSLRLSCAASGYTHSSYCMAWFRQAPGREREGVASIDSDGTTSYADSVKGRFTISQDNAKNTLYLQMNSLKPEDTAMYYCAARFGPMGCVDLSTLSFGHWGQGTQVTVSI
notes: source: E. coli BL21 (DE3), pET28a, purified (Ni-NTA)
B3: VHH6, CD7-specific nanobody (VHH)
VHH: DVQLQESGGGLVQAGGSLRLSCAVSGYPYSSYCMGWFRQAPGKEREGVAAIDSDGRTRYADSVKGRFTISQDNAKNTLYLQMNRMKPEDTAMYYCAARFGPMGCVDLSTLSFGHWGQGTQVTVSI
notes: Selected from a phage library of animals immunized with Jurkat cells (llama in the results, Camelus dromedarius in the methods); Monomer by SEC; also called parental nanobody; source: E. coli BL21 (DE3), pET28a, purified (Ni-NTA)

Common to all, as to conditions: one partner purified
Experiment [1] concerns the target T1, PG001, monovalent CD7 nanobody-based immunotoxin (VHH6-PE38-KDEL) (Pseudomonas (species )).
T1 construct: also called pET28a-VHH6-PE38-KDEL; not shown: His6, N-terminal, kept
Briefly: flow cytometry on cells.

Experiment [2] deals with T2, PG002, bivalent CD7 nanobody-based immunotoxin (dVHH6-PE38-KDEL) (Pseudomonas (species )).
T2 construct: also called pET28a-dVHH6-PE38-KDEL; not shown: His6, N-terminal, kept
The experiment in a line: flow cytometry on cells.

The target in experiment [3] is B1. The experiment in a line: flow cytometry on cells; nanobody or immunotoxin at different concentrations incubated with Jurkat cells on ice; detected with APC anti-HA or Alexa Fluor 488 anti-His antibody; saturation curves, Scatchard plots, nonlinear regression (Prism).

For the molecule B1, the Kd in experiment [1] is 16.7 nM; in experiment [2], 3.61 nM.
Turning to B2, the Kd in experiment [3] stood at 29.6 nM.
Still for that read-out and setting: as for B3, the figure is 15.4 nM.
